Experimental findings from patent US20230340152A1 (published 2023) are described below.

Changes are numbered by the printed parent chain. Numbers in names are those of the source.

Test [1] has as its target T1, Human CD73 ECD (human, UniProt P21589 27-549).
T1 construct: Biotinylated in some assays; also called human CD73 extracellular domain; huCD73
T1 sequence: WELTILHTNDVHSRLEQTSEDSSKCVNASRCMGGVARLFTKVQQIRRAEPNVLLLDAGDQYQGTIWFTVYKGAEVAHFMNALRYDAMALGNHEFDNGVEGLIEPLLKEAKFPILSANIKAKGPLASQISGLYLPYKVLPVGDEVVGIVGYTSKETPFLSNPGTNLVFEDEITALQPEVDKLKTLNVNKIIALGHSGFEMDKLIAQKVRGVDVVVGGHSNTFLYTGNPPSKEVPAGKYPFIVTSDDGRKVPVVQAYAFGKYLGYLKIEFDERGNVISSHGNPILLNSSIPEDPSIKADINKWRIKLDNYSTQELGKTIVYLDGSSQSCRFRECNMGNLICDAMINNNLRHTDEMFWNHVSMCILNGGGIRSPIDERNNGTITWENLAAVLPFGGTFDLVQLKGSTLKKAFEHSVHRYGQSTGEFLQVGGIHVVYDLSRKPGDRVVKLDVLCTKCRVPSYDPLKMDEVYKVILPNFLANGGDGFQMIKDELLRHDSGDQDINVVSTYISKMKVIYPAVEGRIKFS
As to the kind of experiment: direct ELISA, normalized Fab supernatant, vs CD730010 GL9.

A further test concerns the target T2, Murine CD73 ECD (murine, UniProt Q61503 29-551, limits assumed).
T2 construct: extracellular domain; In-house recombinant ECD; also called murine CD73 extracellular domain; muCD73
T2 sequence (looked up): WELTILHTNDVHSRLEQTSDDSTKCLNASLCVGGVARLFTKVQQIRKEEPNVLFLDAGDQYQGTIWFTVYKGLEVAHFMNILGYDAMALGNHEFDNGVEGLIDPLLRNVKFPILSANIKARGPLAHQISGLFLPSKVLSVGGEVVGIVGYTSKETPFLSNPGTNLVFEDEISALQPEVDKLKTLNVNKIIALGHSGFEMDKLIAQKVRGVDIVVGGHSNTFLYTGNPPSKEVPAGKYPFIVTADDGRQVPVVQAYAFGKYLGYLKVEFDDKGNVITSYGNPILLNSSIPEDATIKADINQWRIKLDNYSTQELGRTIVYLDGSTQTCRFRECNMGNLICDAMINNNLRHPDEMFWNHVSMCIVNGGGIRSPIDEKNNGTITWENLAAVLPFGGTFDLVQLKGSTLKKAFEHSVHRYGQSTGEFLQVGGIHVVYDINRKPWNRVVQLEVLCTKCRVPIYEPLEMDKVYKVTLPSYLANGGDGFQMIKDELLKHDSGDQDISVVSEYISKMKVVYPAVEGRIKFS
The description is as above.

Test [2] concerns the target T1, Human CD73 ECD. As to the kind of experiment: SPR (Proteon).
For test [3], the target named is T3, Cynomolgus CD73 on MK-1 cells (cynomolgus, UniProt A0A2K5V5U7 27-549).
T3 construct: whole, on cells; also called MK-1 (cyno)
T3 sequence: T1 sequence with M199T, T350A, V466I
Put plainly: flow cytometry on cells.

The target in test [4] is T4, Murine CD73 on cells (4T1, Jurkat mCD73 knock-in) (murine, UniProt Q61503 29-551).
T4 construct: whole, on cells; also called 4T1 (murine)
T4 sequence (looked up): T2 sequence (looked up)
Put plainly: flow cytometry on cells.

Test [5] has as its target T5, Human CD73 on cells (MDA-MB-231, Jurkat CD73 knock-in, NCI-H322) (human, UniProt P21589 27-549).
T5 construct: GPI-anchored native protein; also called native human CD73
T5 sequence: T1 sequence
As to the kind of experiment: flow cytometry on cells.

Test [6] concerns the target T5, Human CD73 on cells (MDA-MB-231, Jurkat …). Put plainly: cell-based or functional assay.
For test [7] the target is unchanged. As to the kind of experiment: FACS on MDA-MB-231 cells, vs CD730002SGMY.
Test [8] addresses T1, Human CD73 ECD. As to the kind of experiment: cell-based or functional assay.
Test [9] concerns the target T5, Human CD73 on cells (MDA-MB-231, Jurkat …). Put plainly: cell-based or functional assay. The source holds these as a separate data set.
Test [10] deals with T1, Human CD73 ECD. Put plainly: binding assay, format not stated.

B1: CD730010 GL9 VH A50L Fab (Fab, name in Kabat numbering, V domains shown)
VH: EVQLLESGGGLVQPGGSLRLSCAASGFTFSSYAMSWVRQAPGKGLEWVSLISGSGGSTYYADSVKGRFTISRDNSKNTLYLQMNSLRAEDTAVYYCARLGYSTIDYWGRGTLVTVSS
VL: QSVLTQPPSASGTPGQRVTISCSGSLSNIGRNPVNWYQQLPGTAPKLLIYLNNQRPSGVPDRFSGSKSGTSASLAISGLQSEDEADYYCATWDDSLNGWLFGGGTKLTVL
notes: Bacterial Fab, normalized supernatant
As to B1, the entries for the “ELISA signal, fold improvement over parental antibody” value with Human CD73 ECD [1] and in the test with Murine CD73 ECD were 4.2 fold and 3 fold, respectively.

B2: 73combo2 (C2+GRVE+HPT) (antibody, V domains shown)
VH: B1 VH with M34Y, S52W, G55W, S102G, T103R, I104V, Y106E
VL: QSVLTQPPSASGTPGQRVTISCSGSLSNIGRNPVNWYQQLPGTAPKLLIYLDNLRLGGVPDRFSGSKSGTSASLAISGLQSEDEADYYCATWDDSHPGWTFGGGTKLTVL
notes: IgG1-TM format; also called clone 10 combo2
With B2, the Kd came out at 0.005 nM with Human CD73 ECD [2], 0.074 nM in test [3], 0.064 nM in [4] and 0.166 nM in [5].

B3: 73combo5 (G10+GRVE+HPT) (antibody, V domains shown)
VH: B1 VH with M34Y, L50A, G55W, S57R, S102G, T103R, I104V, Y106E
VL: B2 VL with P33D, D52N, L54Q
notes: IgG1-TM format; also called clone 10 combo5
For B3, the Kd is 0.007 nM in the test with Human CD73 ECD [2], 0.078 nM in [3], 0.205 nM in test [4] and 0.169 nM in test [5].

B4: G10 (IgG1-TM) (antibody, V domains shown)
VH: B1 VH with M34Y, L50A, G55W, S57R, Y106L
VL: B2 VL with P33D, D52N, L54Q, H96L, P97K, T100L
notes: IgG1-TM format; also called clone 10 G10
Consider B4, for which the Kd with Human CD73 ECD [2] was found to be 0.009 nM; in test [3], 0.258 nM; in test [4], 0.259 nM; in test [5], 0.354 nM.

B5: C2 (IgG1-TM) (antibody, V domains shown)
VH: B1 VH with M34Y, S52W, G55W, Y106M
VL: B2 VL with H96L, P97K, T100L
notes: IgG1-TM format; also called clone 10 C2
With B5, the Kd in the test with Human CD73 ECD [2] worked out at 0.023 nM; in [3], 0.105 nM; in test [4], 0.067 nM; in test [5], 0.158 nM.

B6: Phen0203 hIgG1 (antibody, V domains shown)
VH: EVQLVQSGGGVVQPGRSLRLSCAASGFRFSDFAMHWVRQAPGKGLEWVAGISYDGGNKYYADSVKGRFTISRDNSNNTLYLQMNSLRAEDTAVYYCAKDHGYSGYYGHLDYWGRGTLVTVSS
VL: not shown
With B6, in [6], the “FabZAP internalization, EC50, MDA-MB-231” value was 0.0925 nM and the “FabZAP internalization, maximum toxicity, MDA-MB-231” value was 91%.

B7: CD730002SGMY CDRH2 G65R (Fab, V domains shown)
VH: EVQLLESGGGLVQPGGSLRLSCAASGFTFSSYAMSWVRQAPGKGLEWVSAISGSGGSTYYADSVKRRFTISRDNSKNTLYLQMNSLRAEDTAVYYCARDKGYYWYMDVWGQGTMVTVSS
VL: QSVLTQPPSVSVSPGQTASITCSGDKVGDKYASWYQQKPGQSPVLVIYEDTKRPSGIPERFSGSNSGNTATLTISGTQAMDEADYYCQAWDTSFWVFGGGTKLTVL
notes: format in the FACS read-out not clearly stated
For B7, in test [7], the “FACS signal, fold improvement over parental antibody” value (“FACS signal, fold improvement” for short) amounted to 1.3 fold.

B8: CD730002SGMY CDRH2 T57P (Fab, V domains shown)
VH: B7 VH with T58P, R66G
VL: B7 VL
notes: as for B7
As for B8, in [7], the “FACS signal, fold improvement” value was found to be 1.5 fold.

B9: CD730002SGMY CDRH2 A60G (Fab, V domains shown)
VH: B7 VH with A61G, R66G
VL: B7 VL
notes: as for B7
B9: the “FACS signal, fold improvement” value in test [7] turned out to be 1.3 fold.

B10: CD730002SGMY CDRL2 P55H (Fab, V domains shown)
VH: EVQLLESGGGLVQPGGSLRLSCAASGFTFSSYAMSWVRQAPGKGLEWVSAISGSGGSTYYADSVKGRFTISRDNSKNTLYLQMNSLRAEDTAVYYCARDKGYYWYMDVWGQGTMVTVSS
VL: B7 VL with P54H
notes: format not clearly stated
As to B10, the “FACS signal, fold improvement” value in [7] came out at 1.5 fold.

B11: CD730002SGMY CDRH1 M34R (Fab, V domains shown)
VH: B7 VH with M34R, R66G
VL: B7 VL
notes: as for B7
Take B11: in [7], the “FACS signal, fold improvement” value turned out to be 1.1 fold.

B12: CD730002SGMY CDRH1 Y32V (Fab, V domains shown)
VH: B7 VH with Y32V, R66G
VL: B7 VL
notes: as for B7
With B12, the “FACS signal, fold improvement” value in test [7] came out at 1.2 fold.

B13: CD730002SGMY CDRL2 T52S (Fab, V domains shown)
VH: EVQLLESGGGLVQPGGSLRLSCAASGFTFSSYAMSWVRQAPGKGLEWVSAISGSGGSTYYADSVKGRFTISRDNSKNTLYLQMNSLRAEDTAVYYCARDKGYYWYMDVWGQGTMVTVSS
VL: QSVLTQPPSVSVSPGQTASITCSGDKVGDKYASWYQQKPGQSPVLVIYEDSKRPSGIPERFSGSNSGNTATLTISGTQAMDEADYYCQAWDTSFWVFGGGTKLTVLL
notes: format not clearly stated
With B13, the “FACS signal, fold improvement” value in test [7] came to 1.5 fold.

B14: CD730002SGMY CDRL2 R54Y (Fab, V domains shown)
VH: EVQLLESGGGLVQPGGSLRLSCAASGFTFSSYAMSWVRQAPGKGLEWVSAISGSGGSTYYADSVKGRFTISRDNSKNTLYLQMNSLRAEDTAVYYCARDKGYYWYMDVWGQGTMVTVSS
VL: B13 VL with S51T, R53Y, L107V
notes: format not clearly stated
With B14, in test [7], the “FACS signal, fold improvement” value is 1.2 fold.

B15: CD730069 (antibody, V domains shown)
VH: EVQLLESGGGLVQPGGSLRLSCAASGFTFSEYQMGWVRQAPGKGLEWVSYIRSSGGQTIYADSVKGRFTISRDNSKNTLYLQMNSLRAEDTAVYYCARRTYSSGWHIDYWGQGTLVTVSS
VL: DIQMTQSPDSLSASVGDRVTITCRASQSISRYLNWYQQKPGKAPKLLIYGASSLQSGVPSRFSGSGSGTDFSLTISSLQLEDFATYYCQQSYRTPLTFGGGTKVEIQ
On to B15, for which the “Enzyme Inhibition, rCD73, 1/EC50 (nM)” value with Human CD73 ECD [8] came out at 0.038 nM⁻¹. For the same molecule, in test [9], the “Enzyme Inhibition, MDA-MB-231, 1/EC50 (nM)” value was 0.0013 nM⁻¹ and the “Internalization, MDA-MB-231, 1/EC50 (nM)” value turned out to be 0.038 nM⁻¹.

B16: CD730047 (antibody, V domains shown)
VH: EVQLVQSGGGVVQPGRSLRLSCAASGFTFSSYGMHWVRQAPGKGLEWVAVISYDGSIKYYADSVKGRFAISRDNAKNTLYLQMNSLRREDTAMYYCASGLTGVAGALGVWGRGTLVTVSS
VL: QSVLTQPPSASGAPGQRVTISCSGSSSNIGSNTVNWYQRLPGAAPQLLIYNNDQRPSGIPDRFSGSKSGTSGSLVISGLQSEDEADYYCAAWDDSLSGNVFGTGTKVTVL
notes: IgG1-TM format; also called CD730047 antibody
Regarding B16, the “Enzyme Inhibition, rCD73, 1/EC50 (nM)” value in the test with Human CD73 ECD [8] came to 0.001 nM⁻¹. In [9], the “Enzyme Inhibition, MDA-MB-231, 1/EC50 (nM)” value is 0.027 nM⁻¹ and the “Internalization, MDA-MB-231, 1/EC50 (nM)” value amounted to 0.001 nM⁻¹. In the test with Human CD73 ECD [10], this molecule had a 1/EC50 of 0 nM⁻¹.

B17: CD730068 (antibody, V domains shown)
VH: EVQLLESGGGLVQPGGSLRLSCAASGFTFSNYIMGWVRQAPGKGLEWVSSISSSGGATIYADSVKGRFTISRDNSKNTLYLQMNSLRAEDMAVYYCAKDHLGGHGMDVWGQGTTVTVSS
VL: DIQMTQSPSSLSASVGDRVTITCRASQDISNYLAWFQQKPGKAPKSLIFAASSLESGVPSKFSGSGSGTDFTLTISSLQPEDSATYYCQQYNSYPLTFGGGTKVEIK
With B17, the “Enzyme Inhibition, rCD73, 1/EC50 (nM)” value in the test with Human CD73 ECD [8] was determined as 0 nM⁻¹. Also, in test [9], the “Enzyme Inhibition, MDA-MB-231, 1/EC50 (nM)” value is 0 nM⁻¹ and the “Internalization, MDA-MB-231, 1/EC50 (nM)” value was 0 nM⁻¹.
